From article PMC11093599 (The Journal of Clinical Investigation, 2024)

T1: AARS1^455 (Homo sapiens, UniProt P49588)
T1 construct: catalytic domain, residues 1-455, purified recombinant; tags and host only in supplement
T1 sequence (P49588 1-455): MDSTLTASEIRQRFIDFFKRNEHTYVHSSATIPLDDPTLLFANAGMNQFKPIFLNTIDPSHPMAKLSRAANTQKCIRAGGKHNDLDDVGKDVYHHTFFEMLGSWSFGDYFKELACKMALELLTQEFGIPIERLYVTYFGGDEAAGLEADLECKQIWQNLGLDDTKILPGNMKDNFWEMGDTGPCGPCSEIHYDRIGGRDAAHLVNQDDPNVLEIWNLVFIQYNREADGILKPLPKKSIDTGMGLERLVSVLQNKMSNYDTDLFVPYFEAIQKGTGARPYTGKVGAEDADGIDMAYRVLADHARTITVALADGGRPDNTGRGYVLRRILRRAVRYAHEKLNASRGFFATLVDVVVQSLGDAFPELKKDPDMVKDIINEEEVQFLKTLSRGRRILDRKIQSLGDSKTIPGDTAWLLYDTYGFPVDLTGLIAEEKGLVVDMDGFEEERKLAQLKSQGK

B1: AARS1 promoter probe (dsDNA)
DNA 1: CAGACAGGGCCTCGCTCTGTCGCCCAAGGAATGCAGTGTCACGATCAGGGCTCACTGCAG
DNA 2: CTGCAGTGAGCCCTGATCGTGACACTGCATTCCTTGGGCGACAGAGCGAGGCCCTGTCTG

Legend:
AARS1^455 = molecular target: T1, AARS1^455; assay: in vitro histone lactylation, pan-Klac immunoblot / mass spectrometry; assay type: biochemical; details: lactate and ATP present; dose-dependent; construct in Supplemental Figure 1F not told
TEAD1 = TEAD1 (UniProt P28347 1-426); assay: EMSA; 10 mM Tris-HCl pH 7.5, 50 mM KCl, 1 mM DTT, 2% glycerol, 25 C, 1 h; details: protein: recombinant; (HS-TEAD1 in pull-down)
TEAD1, sequence (P28347 whole entry): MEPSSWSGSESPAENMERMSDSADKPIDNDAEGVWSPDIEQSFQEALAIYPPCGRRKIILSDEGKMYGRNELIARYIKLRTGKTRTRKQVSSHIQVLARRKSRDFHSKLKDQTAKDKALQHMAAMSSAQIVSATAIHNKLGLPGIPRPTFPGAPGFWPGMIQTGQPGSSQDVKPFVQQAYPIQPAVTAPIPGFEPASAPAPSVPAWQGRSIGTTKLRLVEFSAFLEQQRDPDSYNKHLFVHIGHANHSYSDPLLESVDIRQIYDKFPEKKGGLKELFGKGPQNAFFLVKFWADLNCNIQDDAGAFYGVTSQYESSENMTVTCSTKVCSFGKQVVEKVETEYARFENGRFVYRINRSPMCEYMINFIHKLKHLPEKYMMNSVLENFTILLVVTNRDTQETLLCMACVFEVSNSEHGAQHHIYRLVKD

YAP (1-291) = YAP (1-291) (UniProt P46937 1-291); assay: EMSA; YAP alone; 10 mM Tris-HCl pH 7.5, 50 mM KCl, 1 mM DTT, 2% glycerol, 25 C, 1 h; details: protein: recombinant; tags: MBP
TEAD1;YAP (1-291) = TEAD1;YAP (1-291) (human?;human?, UniProt P28347;P46937 1-426;1-291, |); assay: EMSA; supershift of probe by YAP-TEAD1; 10 mM Tris-HCl pH 7.5, 50 mM KCl, 1 mM DTT, 2% glycerol, 25 C, 1 h; details: protein: recombinant;recombinant; (HS-TEAD1 in pull-down); copies: 1;1

Row | Molecule | inhibition (AARS1^455) | binding result (TEAD1) | binding result (YAP (1-291)) | binding result (TEAD1;YAP (1-291))
1 | Nc1ncnc2c1ncn2[C@@H]1O[C@H](COP(=O)(O)O)[C@@H](O)[C@H]1O [AMP] | inclusion of PPi, AMP, and the synthetic lactyl-AMS | – | – | –
2 | O=P(O)(O)OP(=O)(O)O [PPi] | inclusion of PPi, AMP, and the synthetic lactyl-AMS | – | – | –
3 | B1 | – | binds | no binding | binds
